Experimental data as given in publication PMC9092470, “Understanding p300-transcription factor interactions using sequence variation and hybridization†” (RSC Chemical Biology, 2022).
Where “and” joins values, the source holds several entries; their conditions need not be identical. Equal entries are not always repeated.

Tests used:
Settings in all cases: both partners purified
[1] = biological target: T1, p300 CH1 domain (residues 330-420), GST removed with thrombin (human, UniProt Q09472 330-420); test: ITC; global fit in SEDPHAT of three titrations (HIF-1α776-826 to p300, CITED2 peptide to p300, CITED2 peptide to preformed p300/HIF-1α776-826) to a model with a ternary CITED2-HIF-1α-p300 complex; 40 mM sodium phosphate, pH 7.5, 100 mM NaCl, 1 mM DTT; 35 °C
T1 construct: human p300, CH1 domain (zinc finger, TAZ type 1), residues 330-420; Thrombin-cleaved construct (expected m/z 10603.30), used on the Microcal VP ITC with synthetic partners (D1:p17); source: E. coli BL21 pLysS (pGEX-4T-1), glutathione beads, on-column thrombin cleavage, SEC
T1 sequence (Q09472 330-420): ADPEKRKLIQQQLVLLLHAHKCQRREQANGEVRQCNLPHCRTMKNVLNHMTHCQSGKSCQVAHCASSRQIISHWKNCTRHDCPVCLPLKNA

[2] = biological target: T2, p300 CH1 domain (residues 330–420) (UniProt Q09472 330-420); test: ITC; peptide in the syringe, p300 in the cell (Fig. 4: 5 μM protein, 60 μM ligand); 40 mM sodium phosphate, pH 7.5, 100 mM NaCl, 1 mM DTT, 35 °C; single-site model, fixed 1:1 stoichiometry
T2 construct: p300 CH1 domain, residues 330–420; The cleavage of GST is said for the anisotropy control; also called p300 with the GST tag cleaved; source: recombinantly expressed as a fusion protein with GST, GST tag cleaved
T2 sequence (Q09472 330-420): as above

[3] = biological target: T2, p300 CH1 domain (residues 330–420); test: ITC; competition: CITED2 peptides titrated into the preformed p300/HIF-1α 776–826 complex (1.2–1.6 equivalents of HIF-1α); 40 mM sodium phosphate, pH 7.5, 100 mM NaCl, 1 mM DTT, 35 °C; competitive binding model; apparent
[4] = biological target: T2, p300 CH1 domain (residues 330–420); test: ITC; expressed peptides (GFP tag cleaved) titrated to p300; conditions in Fig. S6 (ESI); fixed 1:1 stoichiometry

B1: HIF-1α776-826 (synthetic) (peptide)
peptide: Ac-SDLACRLLGQSMDESGLPQLTSYDCEVNAPIQGSRNLLQGEELLRALDQVN-NH2
modifications: cysteine pairing not given here
notes: source: synthetic peptide
B1 was tested, and the Kd [1] was 67 nM and 48.8 nM and 52.3 nM.

B2: CITED2224-259 (synthetic) (peptide)
peptide: Ac-DEEVLMSLVIEMGLDRIKELPELWLGQNEFDFMTDF-NH2
notes: source: synthetic peptide
In the case of B2, the Kd [1] is reported as 11.6 nM.

B3: CITED2216-269 (synthetic) (peptide)
peptide: Ac-NVIDTDFIDEEVLMSLVIEMGLDRIKELPELWLGQNEFDFMTDFVCKQQPSRVS-NH2
notes: source: synthetic peptide
With B3 the Kd [1] was 26.9 nM.

B4: CITED2 224–259, chemically synthesized peptide (peptide, UniProt Q99967 224-259, looked up)
peptide: Ac-DEEVLMSLVIEMGLDRIKELPELWLGQNEFDFMTDF-NH2
notes: source: synthetic peptide (chemical synthesis, see ESI)
With B4 the Kd [2] was 9.1 nM, the dH [2] was -12.4 kcal/mol and the “KD,app (competition against the preformed p300/HIF-1α 776–826 complex)” value [3] was 12.2 nM.

B5: CITED2 216–269, chemically synthesized peptide (peptide, UniProt Q99967 216-269, looked up)
peptide: Ac-NVIDTDFIDEEVLMSLVIEMGLDRIKELPELWLGQNEFDFMTDFVCKQQPSRVS-NH2
notes: as for B4
With B5 the Kd [2] was 26.3 nM, the dH [2] was -13.2 kcal/mol and the “KD,app (competition against the preformed p300/HIF-1α 776–826 complex)” value [3] was 1.1 nM.

B6: HIF-1α 786–826, expressed peptide (GFP tag cleaved) (peptide)
peptide: GPGSSMDESGLPQLTSYDCEVNAPIQGSRNLLQGEELLRALDQVN
notes: four residues (Gly-Pro-Gly-Ser) remaining from the PreScission protease cleavage; Free N-terminus; source: expressed as GFP fusion protein, tag cleaved with PreScission protease
B6 was tested, and the dH [4] was -32.7 kcal/mol.

B7: HIF-1α 776–826, expressed peptide (GFP tag cleaved) (peptide)
peptide: GPGSSDLACRLLGQSMDESGLPQLTSYDCEVNAPIQGSRNLLQGEELLRALDQVN
notes: as for B6
In the case of B7, the Kd [4] is reported as 82.4 nM and the dH [4] is reported as -22.2 kcal/mol.

B8: CITIF, HIF-1α-CITED2 hybrid sequence, expressed peptide (GFP tag cleaved) (peptide)
chain: GPGSDEEVLMSLVIEMGLDRIKELPQLTSYDCEVNAPIQGSRNLLQGEELLRALDQVN
In the case of B8, the dH [4] is reported as -18.3 kcal/mol.
